Reference: patent US20160361443A1, “Ultrasound Molecular Imaging With Targeted Biocompatible Microbubbles” (University of Pittsburgh - Of the Commonwealth System of …, priority 2015, published 2016)
Where no end group is shown, it is not given here.

Assays:
human E-selectin [1] = biological target: T1, human E-selectin (Homo sapiens, UniProt P16581); details: cited from earlier work
T1 sequence (P16581 22-610): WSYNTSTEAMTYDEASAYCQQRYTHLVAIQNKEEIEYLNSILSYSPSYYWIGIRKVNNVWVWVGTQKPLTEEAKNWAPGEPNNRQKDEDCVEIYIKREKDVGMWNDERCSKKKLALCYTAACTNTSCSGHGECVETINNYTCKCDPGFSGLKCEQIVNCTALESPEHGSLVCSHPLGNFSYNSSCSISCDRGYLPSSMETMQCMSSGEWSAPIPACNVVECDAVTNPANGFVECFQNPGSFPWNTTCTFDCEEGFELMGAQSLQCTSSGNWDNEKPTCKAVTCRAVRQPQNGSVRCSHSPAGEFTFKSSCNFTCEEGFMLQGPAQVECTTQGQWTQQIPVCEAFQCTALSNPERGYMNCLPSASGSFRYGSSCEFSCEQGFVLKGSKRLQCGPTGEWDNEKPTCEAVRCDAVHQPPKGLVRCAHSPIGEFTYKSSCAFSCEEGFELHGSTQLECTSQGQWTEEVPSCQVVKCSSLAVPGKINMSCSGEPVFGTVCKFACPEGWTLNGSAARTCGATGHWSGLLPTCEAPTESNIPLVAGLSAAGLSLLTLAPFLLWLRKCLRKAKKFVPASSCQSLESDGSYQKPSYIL

human E-selectin [2] = biological target: T1, human E-selectin; details: static and flow-cell assays; cited from earlier work
[3] = biological target: rat E-selectin on inflamed (IL-1β-activated) rat heart microvascular endothelial cells / inflamed or post-ischemic rat endothelium (rat) (UniProt P98105); test: cell-based or functional assay
[4] = biological target: rat E-selectin on inflamed (IL-1β-activated) rat heart microvascular endothelial cells / inflamed or post-ischemic rat endothelium (rat) (UniProt P98105); test: parallel plate flow system, normal cultured rat ECs; control microbubble
[5] = biological target: rat E-selectin on inflamed (IL-1β-activated) rat heart microvascular endothelial cells / inflamed or post-ischemic rat endothelium (rat) (UniProt P98105); test: parallel plate flow system, activated cultured rat ECs; control microbubble
[6] = biological target: rat E-selectin on inflamed (IL-1β-activated) rat heart microvascular endothelial cells / inflamed or post-ischemic rat endothelium (rat) (UniProt P98105); test: parallel plate perfusion chamber, inflamed rat heart microvascular ECs; control microbubble
E-selectin [7] = test: TNF-α induced E-selectin upregulation in HUVEC cells (immunostaining, electrophoresis gel); format: cell-based, human; details: TNFα 20 ng/mL for 4 hr vs without TNFα
Description: FIG. 24 presents exempary data of TNF-α induced E-selectin upregulation by immunostaining of HUVEC cells.

E-selectin [8] = test: RT-qPCR of heart after LPS injection, E-selectin mRNA; format: in vivo, rat; details: 4 hours post LPS injection
Method: (§1) Wistar Rats were intraperitoneally injected with lipopolysaccharide (LPS) in normal saline (dose: 1 mg/kg) to induce systemic inflammation. Four hours post-injection, rats were anesthetized and intubated.
(§2) LPS treated and untreated (i.e., baseline) hearts were harvested. RNA extraction and reverse transcriptase real-time quantitative polymerase chain reaction (RT-qPCR) for E-selectin, ICAM and glyceraldehyde 3-phosphate dehydrogenase (GAPDH, a house keeping gene) in the heart were performed. E-selectin and ICAM mRNA expression level were expressed as percent of GAPDH.

ICAM = test: RT-qPCR of heart after LPS injection, ICAM mRNA; format: in vivo, rat; details: 4 hours post LPS injection
Method: as §1, §2

E-selectin [9] = biological target: T2, E-selectin (Rattus norvegicus, UniProt P98105); test: Ultrasound molecular imaging with targeted MB (Mal) in LPS rat inflammation model; format: in vivo; details: 2×10^7 MB
T2 construct: Immunofluorescent staining in all rats consistently confirmed microvascular E-selectin and ICAM-1 expression in postischemic myocardium; from tissue
T2 sequence (P98105 22-549): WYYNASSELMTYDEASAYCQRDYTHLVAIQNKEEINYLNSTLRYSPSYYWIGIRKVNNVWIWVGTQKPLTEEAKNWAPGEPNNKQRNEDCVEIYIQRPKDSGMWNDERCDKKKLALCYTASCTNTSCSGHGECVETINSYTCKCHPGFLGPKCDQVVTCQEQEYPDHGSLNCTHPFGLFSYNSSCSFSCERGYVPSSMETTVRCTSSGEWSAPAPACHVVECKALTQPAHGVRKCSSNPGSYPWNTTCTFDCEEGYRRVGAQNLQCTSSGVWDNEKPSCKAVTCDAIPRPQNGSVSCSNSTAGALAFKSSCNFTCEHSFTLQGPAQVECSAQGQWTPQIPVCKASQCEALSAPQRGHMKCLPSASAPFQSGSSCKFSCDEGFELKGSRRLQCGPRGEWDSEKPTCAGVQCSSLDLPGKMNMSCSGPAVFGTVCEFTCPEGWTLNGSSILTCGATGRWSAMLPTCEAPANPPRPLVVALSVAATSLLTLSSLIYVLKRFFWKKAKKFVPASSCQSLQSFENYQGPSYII
Method: FIG. 26 presents exemplary data comparing myocardial retention of microbubble populations (2×10^7) either with, or without, a targeting ligand in an LPS rat inflammation model. The data were linearized and a two-phase washout model was fitted to obtain the retained MB concentration in the myocardium.
as §1
Each rat received intravenous injection of targeted MB Esel(MAL) and control MB IgG in random order (2×10^7 MB in 200 μL saline followed by a 200 μL saline flush). Baseline contrast ultrasound images were obtained before each microbubble injection and intermittent contrast ultrasound imaging were performed for 20 min to monitor the adhesion dynamics of MB in the myocardium. Acuson Sequoia 512 clinical ultrasound system (Siemens, Mountain View, Calif.) with a 15 L8 linear array transducer was used for imaging in CPS mode at 7 MHz.
Microbubble (MB) signals in the anterior myocardium and in the left ventricular cavity were also analyzed. […] Signal intensity was linearized and a two-phase washout model
was used to calculate the amount of MB retention in the myocardium.

For “H2NDITWDQLWDLMK-COOH (H-DITWDQLWDLMK-OH) [AF10166]”, which Kd value (human E-selectin [1]; believed, from phage display library screening) is on record?
Its Kd value is “low nanomolar range”.

What about the IC50 (human E-selectin [1]) of the same substance?
The IC50 was 4.4 nM.

What about the Neutrophil adhesion (human E-selectin [2]) of the same substance?
The Neutrophil adhesion was “blocks neutrophil adhesion”.

What does the source list for “MBIgG: polymer/albumin double-shell microbubble bearing rat biotinylated immunoglobulin G (non-specific IgG, BD Biosciences) via biotin-streptavidin bridging (antibody)”?
adherent microbubbles per field, intravital microscopy of TNF-α-inflamed rat cremaster microcirculation (control microbubble) [3]: 1.1 MBs/field; background-subtracted videointensity, postischemic LAD bed (control microbubble) [3]: 1.7 dB; myocardial videointensity, post-ischemic bed (control microbubble) [3]: 2 dB; adherent microbubbles per endothelial cell (MB/EC) [4]: 2 MB/EC; adherent microbubbles per endothelial cell (MB/EC) [5]: 2 MB/EC; adherent microbubbles per endothelial cell (MB/EC) [6]: 2.3 MB/EC

With TNFα as the substance, how does the “E-selectin expression (in words)” value (E-selectin [7]) read?
The value was “significant upregulation”.

Which “Esel mRNA expression” value (E-selectin [8]) does the source give for lipopolysaccharide [LPS] here?
Its value is 2.28±1.32 % of GAPDH.

What about the “ICAM mRNA expression” value (ICAM) of the same substance?
Its value is 6.09±3.14 % of GAPDH.

For “targeted MB: Polymer microbubble conjugated to E-selectin targeting peptide by thioether bond (maleimide-thiol chemistry) (CDITWDQLWDLMK; not fully specified (residue 1); also: N-terminal Cys thioether to maleimide linker BM(PEG)3 on microbubble shell)”, which “Myocardial MB concentration, more as compared with control IgG MB injection” value (E-selectin [9]; 6 minutes post-injection, 4 h post LPS 1 mg/kg) is on record?
The value was 185%.

What about the “Retained MB in the myocardium (Ar term) as compared with control MB injection” value (E-selectin [9]; two-phase washout model fit, 4 h post LPS) of the same substance?
The value was 330%.
